Here are results for three molecules from publication PMC2500128 (The Journal of Cell Biology, 2008).

Like-named read-outs stand apart in the source and are kept apart here.

The target in data set [1] is microtubules (Cy5-labeled tubulin from porcine brain) (porcine (purified from porcine brain)) (UniProt P02550). The data set is described as follows: single-molecule fluorescence motility assay.
Data set [2] shares this target. The experiment in a line: single-molecule fluorescence motility assay. The source holds these as a separate data set.
Data set [3] deals with the molecule itself. The experiment in a line: single-molecule fluorescence and photobleaching.

In turn, “Eg5-513-GFP (from UniProt P28025 1-513) (domain or fragment)” showed a time bound to the microtubule in data set [1] of less than 2 s.

Take “full-length Xenopus laevis Eg5-GFP (from UniProt P28025 1-1067) (natural protein)”: the average duration of motile events (binding events) in data set [2] was 16 s; in data set [1], 34 s.

B1: Eg5-513-GFP (domain or fragment, X. laevis)
chain: MSSQNSFMASKKEDKGKNIQVVVRCRPFNQLERKASSHSVLECDSQRKEVYVRTGEVNDKLGKKTYTFDMVFGPAAKQIEVYRSVVCPILDEVIMGYNCTIFAYGQTGTGKTFTMEGERSSDEEFTWEQDPLAGIIPRTLHQIFEKLSENGTEFSVKVSLLEIYNEELFDLLSPSPDVGERLQMFDDPRNKRGVIIKGLEEISVHNKDEVYHILERGAARRKTASTLMNAYSSRSHSVFSVTIHMKETTVDGEELVKIGKLNLVDLAGSENIGRSGAVDKRAREAGNINQSLLTLGRVITALVERTPHIPYRESKLTRILQDSLGGRTKTSIIATVSPASINLEETVSTLDYANRAKSIMNKPEVNQKLTKKALIKEYTEEIERLKRELAAAREKNGVYLSSENYEQLQGKVLSQEEMITEYTEKITAMEEELKSISELFADNKKELEECTTILQCKEKELEETQNHLQESKEQLAQESFVVSAFETTEKKLHGTANKLLSTVRETTRDVSGLGSSGGGGSGGGGSGGGGS
By stoichiometry N is commonly meant the number of molecules, sites or subunits per partner or assembly. As for B1, in data set [3], the “stoichiometry N” value is 2.
